According to publication PMC10783490, “Biochemical and cellular insights into the Baz2B protein, a non-catalytic subunit of the chromatin remodeling complex” (Nucleic Acids Research, 2023):
Numbering of substitutions follows the chain as printed.

What was measured:
Assay in all cases: MST; 100 nM fluorescently labelled (RED-NHS) BRD^Baz2B, peptide (H3 or H3K14ac) titrated; MST buffer 150 mM Tris-HCl, 50 mM NaCl, 10 mM MgCl2, pH 7.6, 0.0025% Pluronic, 200 ng/ul BSA; 25 C, 20% MST power; at least triplicate
Settings in all cases: both partners purified
[1] = target: T1, His6-BRD^Baz2B (bromodomain of human Baz2B, wild-type) (human, UniProt Q9UIF8 2054-2168, fluorescent label (Monolith NT Protein Labelling Kit RED-NHS))
T1 construct: bromodomain (BRD) of human Baz2B, from plasmid pNIC28-Bsa4-BAZ2B-BRD; also called BAZ2B-BRD; source: E. coli BL21(DE3)-R3-pRARE2, purified (Ni-NTA, Sephadex 75)
T1 sequence: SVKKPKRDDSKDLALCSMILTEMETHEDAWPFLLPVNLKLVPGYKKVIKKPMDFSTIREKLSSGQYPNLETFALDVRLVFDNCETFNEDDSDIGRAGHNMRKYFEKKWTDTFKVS

[2] = target: T1, His6-BRD^Baz2B (bromodomain of human …); remark: listed apart in the source
BRD^Baz2B L2073V = target: T2, BRD^Baz2B L2073V (human, UniProt Q9UIF8 2054-2168, L2073V, fluorescent label (Monolith NT Protein Labelling Kit RED-NHS))
T2 construct: bromodomain (BRD) of human Baz2B with a cancer-associated point mutation, made on pNIC28-Bsa4-BAZ2B-BRD; Same limits as m1; mutation found in pancreatic cancer (COSMIC/ICGC); source: E. coli BL21(DE3)-R3-pRARE2, purified (Ni-NTA, Sephadex 75)
T2 sequence: T1 sequence with L20V

BRD^Baz2B K2098N = target: T3, BRD^Baz2B K2098N (human, UniProt Q9UIF8 2054-2168, K2098N, fluorescent label (Monolith NT Protein Labelling Kit RED-NHS))
T3 construct: bromodomain (BRD) of human Baz2B with a cancer-associated point mutation, made on pNIC28-Bsa4-BAZ2B-BRD; Same limits as m1; mutation found in multiple myeloma; source: E. coli BL21(DE3)-R3-pRARE2, purified (Ni-NTA, Sephadex 75)
T3 sequence: T1 sequence with K45N

BRD^Baz2B L2127V = target: T4, BRD^Baz2B L2127V (human, UniProt Q9UIF8 2054-2168, L2127V, fluorescent label (Monolith NT Protein Labelling Kit RED-NHS))
T4 construct: bromodomain (BRD) of human Baz2B with a cancer-associated point mutation, made on pNIC28-Bsa4-BAZ2B-BRD; Same limits as m1; mutation found in breast cancer; source: E. coli BL21(DE3)-R3-pRARE2, purified (Ni-NTA, Sephadex 75)
T4 sequence: T1 sequence with L74V

BRD^Baz2B T2138I = target: T5, BRD^Baz2B T2138I (human, UniProt Q9UIF8 2054-2168, T2138I, fluorescent label (Monolith NT Protein Labelling Kit RED-NHS))
T5 construct: bromodomain (BRD) of human Baz2B with a cancer-associated point mutation, made on pNIC28-Bsa4-BAZ2B-BRD; Same limits as m1; mutation found in multiple myeloma; source: E. coli BL21(DE3)-R3-pRARE2, purified (Ni-NTA, Sephadex 75)
T5 sequence: T1 sequence with T85I

BRD^Baz2B F2139C = target: T6, BRD^Baz2B F2139C (human, UniProt Q9UIF8 2054-2168, F2139C, fluorescent label (Monolith NT Protein Labelling Kit RED-NHS))
T6 construct: bromodomain (BRD) of human Baz2B with a cancer-associated point mutation, made on pNIC28-Bsa4-BAZ2B-BRD; Same limits as m1; mutation found in endometrial cancer; source: E. coli BL21(DE3)-R3-pRARE2, purified (Ni-NTA, Sephadex 75)
T6 sequence: T1 sequence with F86C

BRD^Baz2B D2143N = target: T7, BRD^Baz2B D2143N (human, UniProt Q9UIF8 2054-2168, D2143N, fluorescent label (Monolith NT Protein Labelling Kit RED-NHS))
T7 construct: bromodomain (BRD) of human Baz2B with a cancer-associated point mutation, made on pNIC28-Bsa4-BAZ2B-BRD; Same limits as m1; mutation found in breast invasive carcinoma; source: E. coli BL21(DE3)-R3-pRARE2, purified (Ni-NTA, Sephadex 75)
T7 sequence: T1 sequence with D90N

Kd [1]: 288 µM
Kd [2]: > 288 µM
Kd (BRD^Baz2B L2073V): 7 µM
Kd (BRD^Baz2B K2098N): 8 µM
Kd (BRD^Baz2B L2127V): 1.7 µM
Kd (BRD^Baz2B T2138I): 211 µM
Kd (BRD^Baz2B F2139C): > 798 µM
Kd (BRD^Baz2B D2143N): 42 µM
B1: H3 peptide (Ac-TARKSTGGKAPRKQL-NH2) (peptide)
peptide: Ac-TARKSTGGKAPRKQL-NH2
notes: N-terminal tail of histone H3, residues 6-20; also called unmodified H3 peptide; unmodified H3K14 tail peptide; source: synthetic peptide, bought: alta Bioscience
